Measured values as given in EP1443117B1 (UNIVERSITY OF VIRGINIA PATENT FOUNDATION, dated 2010).

Target: T1, tssk 2 fused to the GAL4 DNA binding domain (DNA-BD) (human, UniProt P04386 1-147 (Saccharomyces cerevisiae entry), limits assumed)
T1 construct: Yeast two-hybrid bait expressed in reporter strain AH109; also called bait gene (tssk 2); fusion protein of TSSK2 with the DNA-BD
Assay: yeast two-hybrid, growth in His-free medium (AH109 reporter strain)

B1: GAL4 activation domain alone (GAL-AD plasmid) (other, UniProt P04386 768-881, looked up)
chain: ANFNQSGNIADSSLSFTFTNSSNGPNLITTQTNSQALSQPIASSNVHDNFMNNEITASKIDDGNNSKPLSPGWTDQTAYNAFGITTGMFNTTTMDDVYNYLFDDEDTPPNPKKE
notes: also called GAL-AD alone
binding result: no binding
